Common to all, as to experiment: cell-based or functional assay
Assay [1] addresses human IL-28 receptor on 293 HEK cells (transfected IL-28 receptor alpha subunit with endogenous CRF2-4) (human).
In assay [2] the target is zcyto21 (SEQ ID NO:15) (human) (UniProt Q8IU54).
Assay [3] has as its target T1, zcyto24 (mouse IL-28, SEQ ID NO: 8) (mouse) (UniProt Q4VK74).
T1 sequence: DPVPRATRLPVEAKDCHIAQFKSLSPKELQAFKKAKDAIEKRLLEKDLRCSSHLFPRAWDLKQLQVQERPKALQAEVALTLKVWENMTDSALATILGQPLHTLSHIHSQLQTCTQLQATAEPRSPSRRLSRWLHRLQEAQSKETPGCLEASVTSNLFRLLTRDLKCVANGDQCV

The target in assay [4] is T2, zcyto20 (human IL-28A) (human) (UniProt Q8IZJ0).
T2 sequence: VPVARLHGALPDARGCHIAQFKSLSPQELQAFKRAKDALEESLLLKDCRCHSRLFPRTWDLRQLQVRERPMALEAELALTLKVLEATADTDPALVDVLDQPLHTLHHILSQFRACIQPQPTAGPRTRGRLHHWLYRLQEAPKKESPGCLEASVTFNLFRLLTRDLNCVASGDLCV

Where a chain is given by its changes, count along the chain named.

We go through seven molecules from patent US20070020227A1.

Chain of UniProt Q8IU54 (Q8IU54 other isoform, or with tags, fused parts or gaps): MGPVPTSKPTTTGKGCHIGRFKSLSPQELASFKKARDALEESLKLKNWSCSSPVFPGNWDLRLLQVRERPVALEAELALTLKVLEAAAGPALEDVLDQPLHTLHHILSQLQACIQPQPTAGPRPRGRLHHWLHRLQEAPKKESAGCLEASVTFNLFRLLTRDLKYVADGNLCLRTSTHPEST
Chain of human IL-28 receptor on 293 HEK cells (transfected IL-28 receptor alpha subunit with endogenous CRF2-4) (human) (Q8IU57 whole entry, chain 1 of 2): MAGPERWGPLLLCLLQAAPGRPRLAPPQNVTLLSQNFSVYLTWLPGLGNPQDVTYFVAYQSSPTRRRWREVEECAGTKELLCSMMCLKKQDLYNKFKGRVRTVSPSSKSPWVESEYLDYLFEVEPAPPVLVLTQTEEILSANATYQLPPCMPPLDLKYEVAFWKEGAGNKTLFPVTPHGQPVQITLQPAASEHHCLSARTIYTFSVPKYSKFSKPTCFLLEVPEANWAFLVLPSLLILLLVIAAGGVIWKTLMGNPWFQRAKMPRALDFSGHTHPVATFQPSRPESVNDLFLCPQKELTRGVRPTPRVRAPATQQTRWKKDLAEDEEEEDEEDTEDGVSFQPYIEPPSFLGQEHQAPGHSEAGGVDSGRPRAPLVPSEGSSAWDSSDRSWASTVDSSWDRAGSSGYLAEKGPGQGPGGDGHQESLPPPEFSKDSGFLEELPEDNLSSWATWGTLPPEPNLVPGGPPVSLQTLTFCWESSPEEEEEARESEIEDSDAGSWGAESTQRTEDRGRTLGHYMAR
Chain of human IL-28 receptor on 293 HEK cells (transfected IL-28 receptor alpha subunit with endogenous CRF2-4) (human) (Q08334 whole entry, chain 2 of 2, further chain): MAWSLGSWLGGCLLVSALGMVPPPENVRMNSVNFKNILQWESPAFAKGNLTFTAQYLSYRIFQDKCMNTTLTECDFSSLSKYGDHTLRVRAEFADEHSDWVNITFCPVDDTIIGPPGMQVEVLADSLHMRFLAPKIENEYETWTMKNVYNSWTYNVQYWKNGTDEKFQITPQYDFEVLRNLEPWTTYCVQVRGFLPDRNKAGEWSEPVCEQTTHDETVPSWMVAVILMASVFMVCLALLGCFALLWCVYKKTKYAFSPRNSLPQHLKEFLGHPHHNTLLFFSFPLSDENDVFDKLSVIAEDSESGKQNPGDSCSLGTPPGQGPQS

In the case of “huIL10 (from UniProt P22301 19-178) (ligand)”, the ISRE Signaling of Transfected 293 Cells (Fold Induction), ISRE-Luc./IL-28R, ligand 100 ng/ml (fold induction) in assay [1] was 0.5.

On to “human CRF2-4-Fc homodimer soluble receptor (Fc fusion)”, for which the Percent Inhibition of Ligand-induced ISRE Signaling by Soluble Receptors (10 ng/ml ligand, 10 micrograms/ml soluble receptor) turned out to be 79% in assay [2], 82% in assay [3] and 80% in assay [4].

As to “human zcytor19-Fc/human CRF2-4-Fc heterodimer soluble receptor (Fc fusion)”, the values for the Percent Inhibition of Ligand-induced ISRE Signaling by Soluble Receptors (10 ng/ml ligand, 10 micrograms/ml soluble receptor) in assay [2], in assay [3] and in assay [4] were 16%, 47% and 16%, respectively.

Take zcyto10 (ligand): in assay [1], the ISRE Signaling of Transfected 293 Cells (Fold Induction), ISRE-Luc./IL-28R, ligand 125 ng/ml (fold induction) came out at 1.

B1: IL-28B (SEQ ID NO: 6) (ligand)
chain: T2 sequence with H7R, R49K, H51R, M71V, V95G, F112L, Y135H
In turn, B1 yielded an ISRE Signaling of Transfected 293 Cells (Fold Induction), ISRE-Luc./IL-28R, ligand 125 ng/ml (fold induction) in assay [1] of 104.

B2: murine zcytor19-Ig homodimer soluble receptor (Fc fusion, part only; not given: Ig portion, UniProt Q8CGK5 21-227, looked up, part only)
chain, part: RPRLAPPRNVTLFSQNFTVYLTWLPGLGSPPNVTYFVTYQSYIKTGWRPVEHCAGIKALVCPLMCLKKLNLYSKFKGRVQAASAHGRSPRVESRYLEYLFDVELAPPTLVLTQMEKILRVNATYQLPPCMPSLELKYQVEFWKEGLGSKTLFPDTPYGQPVQIPLQQGASRRHCLSARTVYTLIDIKYSQFSEPSCIFLEAPGDKRA
On to B2, for which the values for the Percent Inhibition of Ligand-induced ISRE Signaling by Soluble Receptors (10 ng/ml ligand, 10 micrograms/ml soluble receptor) in assay [2], in assay [3] and in assay [4] were 103%, 89% and 91%, respectively.

B3: human zcytor19-Fc homodimer soluble receptor (Fc fusion, not shown: a dimerising Fc or GST)
chain: RPRLAPPQNVTLLSQNFSVYLTWLPGLGNPQDVTYFVAYQSSPTRRRWREVEECAGTKELLCSMMCLKKQDLYNKFKGRVRTVSPSSKSPWVESEYLDYLFEVEPAPPVLVLTQTEEILSANATYQLPPCMPPLDLKYEVAFWKEGAGNKTLFPVTPHGQPVQITLQPAASEHHCLSARTIYTFSVPKYSKFSKPTCFLLEVPEANWA
In the case of B3, the Percent Inhibition of Ligand-induced ISRE Signaling by Soluble Receptors (10 ng/ml ligand, 10 micrograms/ml soluble receptor) turned out to be 45% in assay [2], 90% in assay [3] and 92% in assay [4].
